Here are results for 2 molecules from article PMC12430135, “A Unique Trimeric Assembly of Human Dishevelled 1 PDZ Domain in Crystal: Implication of Homo- and Hetero-Oligomerization During Wnt Signaling Process” (Molecules, 2025).

The target of data set [1] is Dvl PDZ PDZ (Homo sapiens) (UniProt O14640). The following applies: cited from earlier work.
Data set [2] concerns the molecule itself. The data set is described as follows: crystal structure; hDvl1-PDZ at 8-9.5 mg/ml; vapor diffusion at 20 °C; 0.1 M sodium citrate pH 5.6, 0.5 M ammonium sulfate, 1.0 M lithium sulfate, 0.01 M glutathione, 0.01 M glutathione disulfide; 2.4 Å.

Regarding “Dvl C-terminus C-terminus (from UniProt O14640)”, in data set [1], the dissociation constant Kd (as a rule, a measure of binding affinity in units of concentration) is 7 µM.

B1: PDZ domain of human Dishevelled 1 (hDvl1-PDZ), residues 246-340 with CW338, 339AT (domain or fragment, UniProt O14640 246-340, looked up)
chain: SLNIVTVTLNMERHHFLGISIVGQSNDRGDGGIYIGSIMKGGAVAADGRIEPGDMLLQVNDVNFENMSNDDAVRVLREIVSQTGPISLTVAKATD
notes: Dishevelled 1 (Dvl1), human, PDZ domain, residues 246-340, with two amino acid substitutions (CW338, 339AT); 15N-labelled (M9 medium) for NMR; Calculated molecular weight of the monomer printed as 10,754; also called human Dvl1-PDZ; hDvl1-PDZ1
For the molecule B1, the stoichiometry N (in general, a count of units in the complex or per binding partner) in data set [2] is 3.
